Measurements: article PMC314469, “Protein Interaction Networks by Proteome Peptide Scanning” (PLoS Biology, 2004)

T1: Yfr024 SH3 (LSB3_YEAST), P43603
T1 chain: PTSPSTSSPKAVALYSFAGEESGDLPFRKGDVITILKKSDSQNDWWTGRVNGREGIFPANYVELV

T2: Boi2 SH3 (BOI2_YEAST), P39969
T2 chain: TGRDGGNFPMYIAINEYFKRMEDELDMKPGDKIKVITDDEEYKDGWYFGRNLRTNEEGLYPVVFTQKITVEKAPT

T3: Boi1 SH3 (BOI1_YEAST), P38041
T3 chain: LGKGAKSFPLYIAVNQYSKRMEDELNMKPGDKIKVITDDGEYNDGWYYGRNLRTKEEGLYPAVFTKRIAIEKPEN

T4: Rvs167 SH3 (RV167_YEAST), P39743
T4 chain: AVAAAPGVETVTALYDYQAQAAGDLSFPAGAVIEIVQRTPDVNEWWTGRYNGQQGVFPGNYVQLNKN

T5: Yhr016c SH3 (YSC84_YEAST), P32793
T5 chain: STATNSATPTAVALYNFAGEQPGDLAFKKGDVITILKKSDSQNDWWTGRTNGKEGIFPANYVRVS

T6: Myo5 SH3 (MYO5_YEAST), Q04439
T6 chain: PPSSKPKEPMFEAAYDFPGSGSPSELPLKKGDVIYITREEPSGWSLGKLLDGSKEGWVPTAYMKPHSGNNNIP


How the values were obtained:
Experiment in all cases: SPOT array
[1] = target: Sho1 SH3 (SHO1_YEAST), P40073
Sho1 SH3 (SHO1_YEAST), P40073, sequence (P40073 295-366): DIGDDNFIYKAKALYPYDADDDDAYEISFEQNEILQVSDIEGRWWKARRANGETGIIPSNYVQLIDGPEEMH

[2] = target: T1, Yfr024 SH3 (LSB3_YEAST), P43603
[3] = target: T2, Boi2 SH3 (BOI2_YEAST), P39969
[4] = target: T3, Boi1 SH3 (BOI1_YEAST), P38041
[5] = target: T4, Rvs167 SH3 (RV167_YEAST), P39743
[6] = target: T5, Yhr016c SH3 (YSC84_YEAST), P32793
[7] = target: T6, Myo5 SH3 (MYO5_YEAST), Q04439

| normalised SPOT signal, Boehringer light units (BLU); mean over the file's lines of this peptide [1] | normalised SPOT signal, Boehringer light units (BLU); mean over the file's lines of this peptide [2] | normalised SPOT signal, Boehringer light units (BLU); mean over the file's lines of this peptide [3] | normalised SPOT signal, Boehringer light units (BLU); mean over the file's lines of this peptide [4] | normalised SPOT signal, Boehringer light units (BLU); mean over the file's lines of this peptide [5] | normalised SPOT signal, Boehringer light units (BLU); mean over the file's lines of this peptide [6] | normalised SPOT signal, Boehringer light units (BLU); mean over the file's lines of this peptide [7] | Binder |
| --- | --- | --- | --- | --- | --- | --- | --- |
| 208 | 1500 | 30.6 | 3210 | 250 | 99.6 | 878 | SFIRKRAPTPPAPS [YBR108W 721-734] |
| 2510 | 53.3 | 18.9 | 27 | 100 | 82.1 | 215 | SFVTKYLPAAPVGS [YJR019C 24-37] |
| 2730 | 18600 | 552 | 14100 | 14800 | 7330 | 3570 | RYPFRMIPELPPKR [YMR004W 186-199] |
| 96.4 | 39200 | 8.2 | 958 | 28300 | 11900 | 133 | SILNRSVPKRPTID [YAL017W 1333-1346] |
| 3.8 | 18.5 | 7 | 66.4 | 116 | 19.7 | 393 | SEAKRKFPEAPEVP [YNL121C 455-468] |
| 29500 | 649 | 43.6 | 1170 | 87.9 | 49.3 | 200 | SERRKALPKEPKKL [YIR010W 418-431] |
| 632 | 448 | 22.2 | 176 | 369 | 32.6 | 369 | SIIPRIFPSTPGTI [YGL233W 770-783] |
| 35.8 | 240 | 30.7 | 64.5 | 235 | 52.2 | 170 | SENGRLTPGLPRSY [YPR111W 42-55] |
| 95.5 | 904 | 28.9 | 151 | 207 | 140 | 322 | SEMHRAAPETPRSI [YKL050C 40-53] |
| 29.9 | 19400 | 34.5 | 73 | 21500 | 8100 | 420 | SETARKVPPIPTQI [YPL249C 247-260] |
| 168 | 638 | 41.3 | 593 | 137 | 226 | 436 | SGSGRRYPQTPSYY [YJL095W 698-711] |
| 75.2 | 539 | 5.4 | 128 | 147 | 14.7 | 6760 | SANGKFIPSRPAPK [YHL007C 465-478] |
| 23.8 | 21.6 | 1.4 | 0 | 54.5 | 32.7 | 130 | SDNSKSEPLPPVIT [YFR019W 1795-1808] |
